Residue numbers refer to the chain shown, from its start.
How the values were obtained:
Settings in all cases: label: biotin 3'
OsSPL16 (GW8) [1] = biological target: T1, OsSPL16 (GW8) (Oryza sativa, UniProt Q6YZE8 Q6YZE8:1-455); assay: EMSA; competed by 10-50x cold GTAC probe; probe assignment from Table 9
T1 sequence: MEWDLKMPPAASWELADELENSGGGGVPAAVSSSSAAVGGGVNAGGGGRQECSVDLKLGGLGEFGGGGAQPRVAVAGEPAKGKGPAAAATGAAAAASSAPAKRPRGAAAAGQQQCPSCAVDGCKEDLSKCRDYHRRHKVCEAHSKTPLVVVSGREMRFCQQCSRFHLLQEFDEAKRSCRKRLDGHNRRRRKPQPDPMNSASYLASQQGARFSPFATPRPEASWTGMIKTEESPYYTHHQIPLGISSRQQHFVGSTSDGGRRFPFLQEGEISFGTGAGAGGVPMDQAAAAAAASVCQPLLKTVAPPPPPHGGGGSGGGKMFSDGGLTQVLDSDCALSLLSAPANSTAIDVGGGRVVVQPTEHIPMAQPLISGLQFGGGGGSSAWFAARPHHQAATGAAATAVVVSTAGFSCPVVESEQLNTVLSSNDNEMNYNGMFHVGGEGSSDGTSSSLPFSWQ
From the text: FIG. 4. OsSPL16 negatively regulates GW7 expression. (a) Effect of OsSPL16/GW8 on transcript abundance of GW7 in young panicles. Transcription relative to the level of NIL-GW8^HJX74 plants set to be one. Data shown as mean±s.e.m (n=3). (b) Grain size and shape formed by transgenic NIL-gw8 Basmati plants. Scale bar: 2 mm. (c) ChIP assays. The diagram depicts the putative GW7 promoter and regions of it used for ChIP-PCR analysis of extracts from young panicle of transgenic NIL-gw8 Basmati plants carrying pActin::myc-OsSPL16 construct. Data shown as mean±s.e.m (n=3). (d) EMSA assays. The GTAC motifs-containing DNA fragment (F8 shown in c) of the GW7 promoter was incubated with GST-OsSPL16 as indicated. Competition for OsSPL16 binding was performed with 10×, 20×, 30× and 50× cold probes containing the GTAC motifs, respectively. (e) OsSPL16 represses transcription of the GW7 gene promoter. Relative luciferase activity was monitored in rice protoplasts co-transfected with the different effector and reporter constructs. Mock: co-transfected with reporter constructs and an empty effector construct; negative control: co-transfected with effector construct and an empty reporter construct set to be one. Data shown as mean±s.e.m (n=3). A Student's t-test was used to generate the P values. (f) An 11 bp deletion and 18 bp insertion found in close proximity to the GTAC motifs in the GW7TFA allele. […]

OsSPL16 (GW8) [2] = biological target: T1, OsSPL16 (GW8); assay: as above; remark: listed apart in the source
OsSPL16 (GW8) [3] = biological target: T1, OsSPL16 (GW8); assay: EMSA; mutation of GTAC abolished affinity; probe assignment from Table 9
Experimental: FIG. 10 The DNA fragment (F8) containing two […] motifs (a) or two mutated ATAC motifs (b) was incubated with GST-OsSPL16 as indicated. Competition for OsSPL16 binding was performed with 10×, 20×, 30× and 50× cold probes containing the GTAC motif, respectively.

B1: GW7 promoter F8 fragment probe (HJX1) (dsDNA)
DNA 1: CCATTGACACACCATACCACATCTCATCTCACGCGTCCCAAAGAAAGTGATAGTGTACGTACC
DNA 2: GGTACGTACACTATCACTTTCTTTGGGACGCGTGAGATGAGATGTGGTATGGTGTGTCAATGG
B1: binds (OsSPL16 (GW8) [1]).

B2: GTAC motif probe (T) (dsDNA)
DNA 1: TAGTGTACGTACCTCTTAGTGTACGTACCTCTTAGTGTACGTACCTCT
DNA 2: AGAGGTACGTACACTAAGAGGTACGTACACTAAGAGGTACGTACACTA
B2: binds (OsSPL16 (GW8) [2]).

B3: mutated GTAC motif probe (Z) (dsDNA)
DNA 1: B2 DNA 1 with A7G, A11G, A23G, A27G, A39G, A43G
DNA 2: B2 DNA 2 with T6C, T10C, T22C, T26C, T38C, T42C
B3: no binding (OsSPL16 (GW8) [3]).
